Where a chain is given by its changes, count along the chain named.
Key:
[1] = biological target: T1, CprB (Streptomyces coelicolor A3(2), UniProt Q7AKF2 1-215); experiment: ITC; two-site model, Kd1, n = 0.26, 25 C; EMSA: 10 mM Tris-HCl pH 7.8, 50 mM KCl, 1 mM EDTA, 1 mM DTT, 5% glycerol, hemoglobin, poly(dI-dC), 20 C, ~1 nM DNA; ITC: 50 mM phosphate pH 7, 150 mM NaCl, 25 C; conditions: protein: recombinant; chain copies: 4; label: 5'-32P (EMSA); none (ITC); blunt
T1 sequence: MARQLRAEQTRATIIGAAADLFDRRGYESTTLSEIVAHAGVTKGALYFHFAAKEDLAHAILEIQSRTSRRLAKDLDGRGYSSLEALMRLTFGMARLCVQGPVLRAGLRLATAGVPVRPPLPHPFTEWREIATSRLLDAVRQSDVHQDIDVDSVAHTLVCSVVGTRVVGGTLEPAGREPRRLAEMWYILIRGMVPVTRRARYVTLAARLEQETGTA

[2] = biological target: T1, CprB; experiment: EMSA; EMSA: 10 mM Tris-HCl pH 7.8, 50 mM KCl, 1 mM EDTA, 1 mM DTT, 5% glycerol, hemoglobin, poly(dI-dC), 20 C, ~1 nM DNA; ITC: 50 mM phosphate pH 7, 150 mM NaCl, 25 C; conditions: protein: recombinant, chain copies: 4, blunt
[3] = biological target: T2, CprB K43A (Streptomyces coelicolor A3(2), UniProt Q7AKF2 1-215, K43A); experiment: EMSA; negligible effect; EMSA: 10 mM Tris-HCl pH 7.8, 50 mM KCl, 1 mM EDTA, 1 mM DTT, 5% glycerol, hemoglobin, poly(dI-dC), 20 C, ~1 nM DNA; ITC: 50 mM phosphate pH 7, 150 mM NaCl, 25 C; conditions: protein: recombinant; chain copies: 2; label: 5'-32P (EMSA); none (ITC); blunt
T2 sequence: T1 sequence with K43A

[4] = biological target: T3, CprB S33A (Streptomyces coelicolor A3(2), UniProt Q7AKF2 1-215, S33A); experiment: as above; conditions: protein: recombinant; chain copies: 2; label: 5'-32P (EMSA); none (ITC); blunt
T3 sequence: T1 sequence with S33A

[5] = biological target: T1, CprB; experiment: EMSA; about five-fold weaker than own upstream sequence; EMSA: 10 mM Tris-HCl pH 7.8, 50 mM KCl, 1 mM EDTA, 1 mM DTT, 5% glycerol, hemoglobin, poly(dI-dC), 20 C, ~1 nM DNA; ITC: 50 mM phosphate pH 7, 150 mM NaCl, 25 C; conditions: protein: recombinant; chain copies: 4; label: 5'-32P; blunt, self-complementary
[6] = biological target: T1, CprB; experiment: EMSA; similar trend to OPB; EMSA: 10 mM Tris-HCl pH 7.8, 50 mM KCl, 1 mM EDTA, 1 mM DTT, 5% glycerol, hemoglobin, poly(dI-dC), 20 C, ~1 nM DNA; ITC: 50 mM phosphate pH 7, 150 mM NaCl, 25 C; conditions: protein: recombinant; chain copies: 4; label: 5'-32P; blunt
[7] = biological target: T1, CprB; experiment: ITC; n = 0.52 CS per CprB dimer, 25 C; EMSA: 10 mM Tris-HCl pH 7.8, 50 mM KCl, 1 mM EDTA, 1 mM DTT, 5% glycerol, hemoglobin, poly(dI-dC), 20 C, ~1 nM DNA; ITC: 50 mM phosphate pH 7, 150 mM NaCl, 25 C; conditions: protein: recombinant; chain copies: 4; label: 5'-32P (EMSA); none (ITC, crystal); blunt
[8] = biological target: T1, CprB; experiment: EMSA; range given for scbR, kasOA, kasOB together; EMSA: 10 mM Tris-HCl pH 7.8, 50 mM KCl, 1 mM EDTA, 1 mM DTT, 5% glycerol, hemoglobin, poly(dI-dC), 20 C, ~1 nM DNA; ITC: 50 mM phosphate pH 7, 150 mM NaCl, 25 C; conditions: protein: recombinant; chain copies: 4; label: 5'-32P; blunt
[9] = biological target: the molecule itself; experiment: crystal structure; CprB (6 mg/ml) co-crystallised with annealed 22-mer CS DNA, 1:1.2 (dimer of CprB:CS), hanging drop, 22°C, 0.2 M KCl, 0.02 M MgCl2, 0.05 M Tris-HCl pH 7.5, 10% PEG 4000; 3.25 Å

B1: OPB 27-mer (-47 to -21 of cprB-ATG) (dsDNA)
DNA 1: AGGCAGGCGGCACGGTCTGTTGAGTTC
DNA 2: GAACTCAACAGACCGTGCCGCCTGCCT
Kd [1]: 330 nM
Kd ([2]; label: 5'-32P (EMSA), none (ITC)): ~274 nM
binding result [3]: binds
binding result [4]: binds

B2: cprB1 59-mer (-58 to 0 of cprB-ATG) (dsDNA)
DNA 1: GCCGGGGGTAAAGGCAGGCGGCACGGTCTGTTGAGTTCCAGCCCGGGAGAATCCAGCCG
DNA 2: CGGCTGGATTCTCCCGGGCTGGAACTCAACAGACCGTGCCGCCTGCCTTTACCCCCGGC
Kd ([2]; label: 5'-32P): ~400 nM

B3: QacR(OS) 28-mer (dsDNA)
DNA 1: CTTATAGACCGATCGATCGGTCTATAAG
DNA 2: CTTATAGACCGATCGATCGGTCTATAAG
Kd [5]: ~1500 nM

B4: cprA upstream 25-mer (-44 to -20 of cprA-ATG) (dsDNA)
DNA 1: AACAGGCACACGGTCTGTTGGTTCT
DNA 2: AGAACCAACAGACCGTGTGCCTGTT
binding result [6]: binds

B5: CS 22-mer (dsDNA)
DNA 1: ACATACGGGACGCCCCGTTTAT
DNA 2: ATAAACGGGGCGTCCCGTATGT
Kd [7]: 200 nM
Kd ([2]; label: 5'-32P (EMSA), none (ITC, crystal)): ~374 nM

B6: TetR(OS) 15-mer (dsDNA)
DNA 1: TCTATCATTGATAGG
DNA 2: CCTATCAATGATAGA
binding result ([2]; label: 5'-32P): no binding

B7: kasOA (dsDNA)
DNA 1: ACAAACCGGTGTGCTGGTTTGTAAAGTCGTGG
DNA 2: CCACGACTTTACAAACCAGCACACCGGTTTGT
Kd [8]: ~1060 nM

B8: scbR (dsDNA)
DNA 1: GGAACCGGCAATGCGGTTTGTTCGATC
DNA 2: GATCGAACAAACCGCATTGCCGGTTCC
Kd [8]: ~1060 nM

B9: CprB (coelicolor pigment regulator protein B) from S. coelicolor A3(2) (natural protein, UniProt O66122 1-215, looked up)
chain: T1 sequence
modifications: intermonomer disulfide linkage between cysteine residues at position 159
notes: CprB, TetR family gamma-butyrolactone receptor, Streptomyces coelicolor A3(2); the cprB gene encodes a 215 amino acid protein, expressed from pET26b(+); Crystallised with the 22-mer consensus DNA (CS); two homodimers in each asymmetric unit; No tag is mentioned; purification was by cation exchange; also called native CprB; source: E. coli BL21(DE3)pLysS, purified (SP Sepharose)
stoichiometry N [9]: 2

B10: kasOB (dsDNA)
DNA 1: CAAAACAGACTTGTTAGCTGTTT
DNA 2: AAACAGCTAACAAGTCTGTTTTG
Kd [8]: ~1060 nM
